The series deals with YhaM D193A (Staphylococcus aureus JE2 (USA300), UniProt A0A0H2XHZ3 1-313, D193A). Put plainly: EMSA; 1 mM Mn2+; 15 nM RNA, 0-30 uM YhaM; partial RNA degradation at high protein; EMSA: 50 mM Na-Tricine pH 8.0, 100 mM KCl, 1 mM MnSO4, 37 C 20 min, 20% TBE native gel. The note with it: protein: recombinant; tags: N-terminal His6 (pMCSG7); label: 5'-6-FAM; single strand. (In general: A gel shift assay detects complexes by their altered migration in electrophoresis.)

Data on one molecule can be found in PMC11347170, “Staphylococcal exoribonuclease YhaM destabilizes ribosomes by targeting the mRNA of a hibernation factor”.

Consider AGGAAAAAACAUUUUAUAAAGGAGA (ssRNA) [RNA_a], for which the binding result is listed as “binds”.
